{"source": "patent US20150104385A1", "about": "“RADIO-PHARMACEUTICAL COMPLEXES” (Algeta ASA, priority 2012, published 2015)", "biological_target": "T1, CD22 (Homo sapiens, UniProt P20273)", "T1 construct": "host or cells: Raji cells", "experiment": "Binding of AGC1115 and AGC1100 to CD22-positive Raji cells by flow cytometry", "conditions": "flow cytometry MFI, 1.5 h at 4° C., four-parameter fit, read-out: EC50 of fitted titration curve (binding potency)", "procedure": "Binding of AGC1115 and AGC1100 (anti-human CD22, Immunomedics; hLL2, #1003164, 10 mg/ml) to CD22-positive Raji cells (ATCC, #CCL-86) was analysed by flow cytometry. The EC50 value determined from the fitted curve was used for comparison of the antibody versus the antibody conjugate binding potency. This analysis was used to confirm that antibody conjugate binding potency to CD22 was unaffected by the conjugation procedure.\nRaji cells were grown in RPMI 1640 (PAA; #E15-840) in the presence of 10% fetal bovine serum (FBS) and 1% penicillin/streptomycin. For the flow cytometry analysis 50 ml cell culture was harvested by centrifugation at 4° C. for 5 min at 340×g. […] Subsequently, 20 μl of the preparation of resuspended cells was diluted 1:500 in Coulter Isoton II Diluent, and counted using Beckman Coulter Z2 instrumentation (Beckman Coulter; CA, USA). […]\nAGC1115 and AGC1100 was diluted to 50 μg/ml and titrated in twelve points in 3-fold dilution steps. […] All samples were analysed in a V-shaped bottom 96-well plate. Fluorescent signal was recorded on a Beckman Coulter Cell Lab Quanta SC MPL flow cytometer (Beckman Coulter; CA, USA). […]\nData was fitted using the “log(agonist) vs. response—Variable slope (four parameters)” binding model in Graph Pad Prism (PrismSoftware; CA, USA) and the EC50 values was calculated from the fit (FIG. 2)."}
{"substance": "AGC1100: anti-CD22 monoclonal antibody hLL2, also called epratuzumab", "values": [{"measurement": "EC50", "result": 9, "unit": "nM"}]}
